According to publication PMC6588349, “Conformational dynamics between transmembrane domains and allosteric modulation of a metabotropic glutamate receptor” (eLife, 2019):

B1: SNAP-mGluR5-TMD (domain or fragment, human, UniProt P41594 570-1212, looked up)
chain: VQYLRWGDPEPIAAVVFACLGLLATLFVTVVFIIYRDTPVVKSSSRELCYIILAGICLGYLCTFCLIAKPKQIYCYLQRIGIGLSPAMSYSALVTKTNRIARILAGSKKKICTKKPRFMSACAQLVIAFILICIQLGIIVALFIMEPPDIMHDYPSIREVYLICNTTNLGVVTPLGYNGLLILSCTFYAFKTRNVPANFNEAKYIAFTMYTTCIIWLAFVPIYFGSNYKIITMCFSVSLSATVALGCMFVPKVYIILAKPERNVRSAFTTSTVVRMHVGDGKSSSAASRSSSLVNLWKRRGSSGETLRYKDRRLAQHKSEIECFTPKGSMGNGGRATMSSSNGKSVTWAQNEKSSRGQHLWQRLSIHINKKENPNQTAVIKPFPKSTESRGLGAGAGAGGSAGGVGATGGAGCAGAGPGGPESPDAGPKALYDVAEAEEHFPAPARPRSPSPISTLSHRAGSASRTDDDVPSLHSEPVARSSSSQGSLMEQISSVVTRFTANISELNSMMLSTAAPSPGVGAPLCSSYLIPKEIQLPTTMTTFAEIQPLPAIEVTGGAQPAAGAQAAGDAARESPAAGPEAAAAKPDLEELVALTPPSPFRDSVDSGSTTPNSPVSESALCIPSSPKYDTLIIRDYTQSSSSL
modifications: SNAP tag labelled with BG-LD555 (SiMPull); with donor and acceptor fluorophores (FRET)
notes: mGluR5, human; LBD and CRD deleted; following the SNAP tag the receptor starts at V570; Made by modifying the full-length SNAP-tagged cDNA of Doumazane et al., 2011; source: HEK 293T, transfected; surface-labelled, in detergent lysate (SiMPull); on living cells (FRET); not shown: HA, N-terminal, kept; SNAP, N-terminal, kept
B2: SNAP-mGluR3-TMD (domain or fragment, rat, UniProt P31422 567-879, looked up)
chain: EDYIKWEDAWAIGPVTIACLGFLCTCIVITVFIKHNNTPLVKASGRELCYILLFGVSLSYCMTFFFIAKPSPVICALRRLGLGTSFAICYSALLTKTNCIARIFDGVKNGAQRPKFISPSSQVFICLGLILVQIVMVSVWLILETPGTRRYTLPEKRETVILKCNVKDSSMLISLTYDVVLVILCTVYAFKTRKCPENFNEAKFIGFTMYTTCIIWLAFLPIFYVTSSDYRVQTTTMCISVSLSGFVVLGCLFAPKVHIVLFQPQKNVVTHRLHLNRFSVSGTATTYSQSSASTYVPTVCNGREVLDSTTSSL
modifications: SNAP tag labelled with BG-LD555
notes: mGluR3, rat; LBD and CRD deleted; following the SNAP tag the receptor starts at E567; Made by modifying the full-length SNAP-tagged cDNA of Doumazane et al., 2011; source: HEK 293T, transfected, surface-labelled, in detergent lysate; not shown: HA, N-terminal, kept; SNAP, N-terminal, kept
B3: SNAP-tagged full-length mGluR2 (HA-SNAP-mGluR2) (receptor, rat, UniProt P31421 19-872, looked up)
chain: EGPAKKVLTLEGDLVLGGLFPVHQKGGPAEECGPVNEHRGIQRLEAMLFALDRINRDPHLLPGVRLGAHILDSCSKDTHALEQALDFVRASLSRGADGSRHICPDGSYATHSDAPTAVTGVIGGSYSDVSIQVANLLRLFQIPQISYASTSAKLSDKSRYDYFARTVPPDFFQAKAMAEILRFFNWTYVSTVASEGDYGETGIEAFELEARARNICVATSEKVGRAMSRAAFEGVVRALLQKPSARVAVLFTRSEDARELLAATQRLNASFTWVASDGWGALESVVAGSERAAEGAITIELASYPISDFASYFQSLDPWNNSRNPWFREFWEERFHCSFRQRDCAAHSLRAVPFEQESKIMFVVNAVYAMAHALHNMHRALCPNTTHLCDAMRPVNGRRLYKDFVLNVKFDAPFRPADTDDEVRFDRFGDGIGRYNIFTYLRAGSGRYRYQKVGYWAEGLTLDTSFIPWASPSAGPLPASRCSEPCLQNEVKSVQPGEVCCWLCIPCQPYEYRLDEFTCADCGLGYWPNASLTGCFELPQEYIRWGDAWAVGPVTIACLGALATLFVLGVFVRHNATPVVKASGRELCYILLGGVFLCYCMTFVFIAKPSTAVCTLRRLGLGTAFSVCYSALLTKTNRIARIFGGAREGAQRPRFISPASQVAICLALISGQLLIVAAWLVVEAPGTGKETAPERREVVTLRCNHRDASMLGSLAYNVLLIALCTLYAFKTRKCPENFNEAKFIGFTMYTTCIIWLAFLPIFYVTSSDYRVQTTTMCVSVSLSGSVVLGCLFAPKLHIILFQPQKNVVSHRAPTSRFGSAAPRASANLGQGSGSQFVPTVCNGREVVDSTTSSL
modifications: SNAP tag labelled with BG-LD555 (SiMPull); SNAP tag labelled with donor and acceptor fluorophores (inter-LBD FRET)
notes: metabotropic glutamate receptor 2 (mGluR2), rat, full-length, behind N-terminal HA and SNAP tags; construct of Doumazane et al., 2011; also called mGluR2-WT; WT-SNAP-mGluR2; source: HEK 293T, transfected; surface-labelled, in detergent lysate (SiMPull); on living cells (FRET); not shown: HA, N-terminal, kept; SNAP, N-terminal, kept
B4: SNAP-mGluR1-TMD (domain or fragment, rat, UniProt P23385 583-1199, looked up)
chain: VRYLEWSDIESIIAIAFSCLGILVTLFVTLIFVLYRDTPVVKSSSRELCYIILAGIFLGYVCPFTLIAKPTTTSCYLQRLLVGLSSAMCYSALVTKTNRIARILAGSKKKICTRKPRFMSAWAQVIIASILISVQLTLVVTLIIMEPPMPILSYPSIKEVYLICNTSNLGVVAPVGYNGLLIMSCTYYAFKTRNVPANFNEAKYIAFTMYTTCIIWLAFVPIYFGSNYKIITTCFAVSLSVTVALGCMFTPKMYIIIAKPERNVRSAFTTSDVVRMHVGDGKLPCRSNTFLNIFRRKKPGAGNANSNGKSVSWSEPGGRQAPKGQHVWQRLSVHVKTNETACNQTAVIKPLTKSYQGSGKSLTFSDASTKTLYNVEEEDNTPSAHFSPPSSPSMVVHRRGPPVATTPPLPPHLTAEETPLFLADSVIPKGLPPPLPQQQPQQPPPQQPPQQPKSLMDQLQGVVTNFGSGIPDFHAVLAGPGTPGNSLRSLYPPPPPPQHLQMLPLHLSTFQEESISPPGEDIDDDSERFKLLQEFVYEREGNTEEDELEEEEDLPTASKLTPEDSPALTPPSPFRDSVASGSSVPSSPVSESVLCTPPNVTYASVILRDYKQSSSTL
modifications: SNAP tag labelled with BG-LD555
notes: LBD and CRD deleted; following the SNAP tag the receptor starts at V583; Made by modifying the full-length SNAP-tagged cDNA of Doumazane et al., 2011; source: HEK 293T, transfected, surface-labelled, in detergent lysate; not shown: HA, N-terminal, kept; SNAP, N-terminal, kept
B5: SNAP-mGluR2-TMD (HA-SNAP-tagged isolated transmembrane domain of mGluR2) (domain or fragment, rat, UniProt P31421 558-872, looked up)
chain: QEYIRWGDAWAVGPVTIACLGALATLFVLGVFVRHNATPVVKASGRELCYILLGGVFLCYCMTFVFIAKPSTAVCTLRRLGLGTAFSVCYSALLTKTNRIARIFGGAREGAQRPRFISPASQVAICLALISGQLLIVAAWLVVEAPGTGKETAPERREVVTLRCNHRDASMLGSLAYNVLLIALCTLYAFKTRKCPENFNEAKFIGFTMYTTCIIWLAFLPIFYVTSSDYRVQTTTMCVSVSLSGSVVLGCLFAPKLHIILFQPQKNVVSHRAPTSRFGSAAPRASANLGQGSGSQFVPTVCNGREVVDSTTSSL
modifications: SNAP tag labelled with BG-LD555 (SiMPull); with BG-LD655 as acceptor or with a mixture of BG-LD555 and BG-LD655 (FRET)
notes: mGluR2, rat; LBD and CRD deleted; following the SNAP tag the receptor starts at Q558; Made by modifying the full-length SNAP-tagged cDNA of Doumazane et al., 2011; also called HA-SNAP-mGluR2-TMD; isolated mGluR2 TMD; source: HEK 293T, transfected; surface-labelled, in detergent lysate (SiMPull); on living cells (FRET); not shown: HA, N-terminal, kept; SNAP, N-terminal, kept

Target: the molecule itself
Assay: single-molecule pulldown (SiMPull) with subunit counting by photobleaching steps; surface receptors labelled with BG-LD555 on HEK 293T cells, lysed in 1.2% IGEPAL, diluted in 0.1% IGEPAL, immobilised by biotinylated anti-HA antibody on a PEG-passivated coverslip, TIRF imaging; SNAP labelling efficiency ~80%; background two-step bleaching ~5-10%

Row | Protein | percent of spots bleaching in two steps [%] | stoichiometry N
1 | B1 | ~30 | 2
2 | B2 | ~30 | 2
3 | B3 | ~60 | 2
4 | B4 | ~30 | 2
5 | B5 | ~45 | 2
